Assay results as given in PMC8457756.

Experiments:
Experiment in all cases: EMSA
Settings in all cases: EMSA: 0.5 uM dsDNA probe, semi-pure TF titrated, PBS + NP40, 10 uL; 6% polyacrylamide gel, 0.5x TBE, 100 V 1 h, room temperature running buffer; pH and …
[1] = tested on: Rex_2471 (Clostridium thermocellum DSM 1313)
[2] = tested on: GlyR2 (Clostridium thermocellum DSM 1313)
[3] = tested on: GntR_1482 (Clostridium thermocellum DSM 1313)
[4] = tested on: BlaI_1845 (Clostridium thermocellum DSM 1313)
[5] = tested on: TetR_0692 (Clostridium thermocellum DSM 1313)

For “CAGGATGTAATGGCTTGTCGTCAGACCGGAG (double strand) [Rex_2471 negative oligo]”, the binding signal (% probe shifted) [1] was under 10.
“TATAGCACCGGTAACATTACAAATCATAGAAT (double strand) [GlyR2 test oligo]” was tested, and the binding signal (% probe shifted) [2] was over 70.
Work on “ACCCCTGATTATGACAACATGACAGTAACAATCCGG (double strand) [GntR_1482 test oligo]” yielded a binding signal (% probe shifted) [3] of over 70.
“TGATATGGGGTGTTTGCTGTTTTTGCC (double strand) [negative oligo 27 bp]” showed a binding signal (% probe shifted) [4] of under 10, a binding signal (% probe shifted) [2] of under 10 and a binding signal (% probe shifted) [5] of under 10.
Sequence “ATTATTTTATTTTGTTATATTTTTAACAAAAAAATTATT (double strand) [Rex_2471 test oligo]” has a binding signal (% probe shifted) [1] of over 70.
“TAATTGGATCTTTGTTAATTGCAGTTTT (double strand) [GntR_1482 negative oligo]” was tested, and the binding signal (% probe shifted) [3] was under 10.
With “GACCATAACAATAGTCCAAGTTCATCT (double strand) [BlaI_1845 test oligo]” the binding signal (% probe shifted) [4] was over 70.
In the case of “TAAGCAGGGATATGACCACGTGGTCACCGTCCTCTG (double strand) [TetR_0692 test oligo]”, the binding signal (% probe shifted) [5] is reported as over 70.
